Test results: PMC5286520 (2017)
Bridge positions count the residues as written; N and C are the ends. Square brackets hold non-standard residues; d marks the D form. Ends that are not written are not given here.

Key:
[1] = target: T1, V1aR (Homo sapiens, UniProt P37288); test: radioligand displacement
[2] = target: T2, V1bR (Homo sapiens, UniProt P47901); test: radioligand displacement
T2 chain: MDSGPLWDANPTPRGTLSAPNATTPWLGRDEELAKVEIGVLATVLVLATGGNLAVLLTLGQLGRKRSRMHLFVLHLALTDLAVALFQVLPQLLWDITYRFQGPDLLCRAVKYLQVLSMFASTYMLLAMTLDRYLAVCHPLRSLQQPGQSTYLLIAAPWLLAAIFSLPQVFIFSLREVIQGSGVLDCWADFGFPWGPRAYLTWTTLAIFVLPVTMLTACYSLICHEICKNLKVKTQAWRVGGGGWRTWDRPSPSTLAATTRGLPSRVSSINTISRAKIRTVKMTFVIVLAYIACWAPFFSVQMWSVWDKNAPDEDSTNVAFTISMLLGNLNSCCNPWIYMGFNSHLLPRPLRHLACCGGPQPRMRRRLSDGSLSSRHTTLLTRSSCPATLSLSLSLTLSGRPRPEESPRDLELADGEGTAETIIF

[3] = target: T3, OTR (Homo sapiens, UniProt P30559); test: radioligand displacement
T3 chain: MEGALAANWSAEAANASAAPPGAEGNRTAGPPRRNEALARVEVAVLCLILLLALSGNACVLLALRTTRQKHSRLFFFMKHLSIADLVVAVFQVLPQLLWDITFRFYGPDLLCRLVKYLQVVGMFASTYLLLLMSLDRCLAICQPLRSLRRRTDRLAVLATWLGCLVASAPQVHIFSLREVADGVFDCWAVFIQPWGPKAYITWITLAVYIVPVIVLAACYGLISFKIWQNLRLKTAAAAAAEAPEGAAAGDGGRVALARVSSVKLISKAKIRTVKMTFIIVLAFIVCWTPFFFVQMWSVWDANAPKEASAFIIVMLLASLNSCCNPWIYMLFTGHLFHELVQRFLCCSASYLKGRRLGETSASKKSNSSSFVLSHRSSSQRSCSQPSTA

[4] = target: T1, V1aR; test: Schild analysis (IP1 assay)

T1 sequence (P37288 whole entry): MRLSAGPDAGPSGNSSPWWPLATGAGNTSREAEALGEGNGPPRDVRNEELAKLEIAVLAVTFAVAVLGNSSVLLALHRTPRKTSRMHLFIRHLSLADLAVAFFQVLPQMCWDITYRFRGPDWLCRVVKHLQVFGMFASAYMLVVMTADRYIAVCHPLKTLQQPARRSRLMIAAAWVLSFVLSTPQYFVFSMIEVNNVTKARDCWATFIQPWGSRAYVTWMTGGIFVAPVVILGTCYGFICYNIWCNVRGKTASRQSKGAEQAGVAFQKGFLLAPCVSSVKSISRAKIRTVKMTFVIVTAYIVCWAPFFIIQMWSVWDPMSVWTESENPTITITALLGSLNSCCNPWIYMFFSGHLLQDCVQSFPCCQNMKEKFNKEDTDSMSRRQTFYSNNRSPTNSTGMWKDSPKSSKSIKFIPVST

B1: [D-Arg8]-inotocin (peptide)
chain: CLITNCP[dR]G-NH2
modifications: disulfide 1-6 (inferred)
Ki [1]: 1.3 nM
Ki [2]: > 100000 nM
Ki [3]: > 4000 nM
Ki [4]: ~16 nM
